Substrate in this data set: CO
Description: HPLC of formaldehyde after O-benzylhydroxylamine derivatization; Michaelis-Menten nonlinear fit. The class given is biochemical, Lysinibacillus xylanilyticus. The settings on record: 3 mM NAD+, 5 mM Mg2+, 50 mM CHES pH 9.5, 55 °C, 10 min, 0-5 mM methanol. The text has this: HPLC of formaldehyde after O-benzylhydroxylamine derivatization; Michaelis-Menten nonlinear fit on Lxmdh (methanol dehydrogenase, Mdh, NAD-dependent)

B1: Lxmdh (methanol dehydrogenase, Mdh, NAD-dependent) (Lysinibacillus xylanilyticus) (protein)
chain: MSDVLKQFVMPKTNLFGPGAIQEVGTRLNDLEVKKTLIVTDEGLHKLGLSEQIANIITAAGIDVAIFPKAEPNPTDQNIEDGIAVYHAENCDSIVSLGGGSAHDAAKGIGLIASNGGRIHDYEGVDKSQNPLVPLIAINTTAGTASEMTRFTIITDTARKVKMAIVDKHVTPLLSINDPELMIGLPPALTAATGLDALTHAIESFVSTNATPITDACAEKVLQLVPEYLPRAYANGADLEAREQMVYAQFLAGMAFNNASLGYVHAIAHQLGGFYNLPHGVCNAILLPHVCRFNLTARTERFARIAELLGENVEALSKRDAAEKAIVAIENLSRDLNIPSGFRELGAKDEDIEILAKNAMLDVCAATNPRKATLEEIKQIITNAMGPVAKKEESLEAVALS
notes: His-tagged (pET28a; cloning primers indicate N-terminal His/thrombin tag and native stop), expressed in E. coli, Ni-NTA purified; cloning primers encode N-terminus MSDVLK and C-terminus KAVALS
Take B1: the Km (usually the concentration of substrate that gives half-maximal velocity) amounted to 1311 ± 406 µM; the catalytic constant (kcat) (commonly the number of substrate molecules converted per active site and unit of time at saturation) was 0.0333 ± 0.00333 s⁻¹.

B2: Lxmdh (methanol dehydrogenase, Mdh, NAD-dependent) (Lysinibacillus xylanilyticus; K46E) (protein)
chain: MSDVLKQFVMPKTNLFGPGAIQEVGTRLNDLEVKKTLIVTDEGLHELGLSEQIANIITAAGIDVAIFPKAEPNPTDQNIEDGIAVYHAENCDSIVSLGGGSAHDAAKGIGLIASNGGRIHDYEGVDKSQNPLVPLIAINTTAGTASEMTRFTIITDTARKVKMAIVDKHVTPLLSINDPELMIGLPPALTAATGLDALTHAIESFVSTNATPITDACAEKVLQLVPEYLPRAYANGADLEAREQMVYAQFLAGMAFNNASLGYVHAIAHQLGGFYNLPHGVCNAILLPHVCRFNLTARTERFARIAELLGENVEALSKRDAAEKAIVAIENLSRDLNIPSGFRELGAKDEDIEILAKNAMLDVCAATNPRKATLEEIKQIITNAMGPVAKKEESLEAVALS
notes: as for B1
Turning to B2, the Michaelis constant (Km) amounted to 372 ± 231 µM and the turnover number (kcat) was determined as 0.0283 ± 0.00333 s⁻¹.

B3: Lxmdh (methanol dehydrogenase, Mdh, NAD-dependent) (Lysinibacillus xylanilyticus; E396V) (protein)
chain: MSDVLKQFVMPKTNLFGPGAIQEVGTRLNDLEVKKTLIVTDEGLHKLGLSEQIANIITAAGIDVAIFPKAEPNPTDQNIEDGIAVYHAENCDSIVSLGGGSAHDAAKGIGLIASNGGRIHDYEGVDKSQNPLVPLIAINTTAGTASEMTRFTIITDTARKVKMAIVDKHVTPLLSINDPELMIGLPPALTAATGLDALTHAIESFVSTNATPITDACAEKVLQLVPEYLPRAYANGADLEAREQMVYAQFLAGMAFNNASLGYVHAIAHQLGGFYNLPHGVCNAILLPHVCRFNLTARTERFARIAELLGENVEALSKRDAAEKAIVAIENLSRDLNIPSGFRELGAKDEDIEILAKNAMLDVCAATNPRKATLEEIKQIITNAMGPVAKKEESLVAVALS
notes: as for B1
Regarding B3, the Michaelis constant (Km) is 10 ± 3 µM and the kcat amounted to 0.02 ± 0.00167 s⁻¹.

B4: Lxmdh (methanol dehydrogenase, Mdh, NAD-dependent) (Lysinibacillus xylanilyticus; K318N) (protein)
chain: MSDVLKQFVMPKTNLFGPGAIQEVGTRLNDLEVKKTLIVTDEGLHKLGLSEQIANIITAAGIDVAIFPKAEPNPTDQNIEDGIAVYHAENCDSIVSLGGGSAHDAAKGIGLIASNGGRIHDYEGVDKSQNPLVPLIAINTTAGTASEMTRFTIITDTARKVKMAIVDKHVTPLLSINDPELMIGLPPALTAATGLDALTHAIESFVSTNATPITDACAEKVLQLVPEYLPRAYANGADLEAREQMVYAQFLAGMAFNNASLGYVHAIAHQLGGFYNLPHGVCNAILLPHVCRFNLTARTERFARIAELLGENVEALSNRDAAEKAIVAIENLSRDLNIPSGFRELGAKDEDIEILAKNAMLDVCAATNPRKATLEEIKQIITNAMGPVAKKEESLEAVALS
notes: as for B1
In the case of B4, the Michaelis-Menten constant (Km) turned out to be 46 ± 72 µM and the kcat worked out at 0.0267 ± 0.005 s⁻¹.

B5: Lxmdh (methanol dehydrogenase, Mdh, NAD-dependent) (Lysinibacillus xylanilyticus; E396V/K318N) (protein)
chain: MSDVLKQFVMPKTNLFGPGAIQEVGTRLNDLEVKKTLIVTDEGLHKLGLSEQIANIITAAGIDVAIFPKAEPNPTDQNIEDGIAVYHAENCDSIVSLGGGSAHDAAKGIGLIASNGGRIHDYEGVDKSQNPLVPLIAINTTAGTASEMTRFTIITDTARKVKMAIVDKHVTPLLSINDPELMIGLPPALTAATGLDALTHAIESFVSTNATPITDACAEKVLQLVPEYLPRAYANGADLEAREQMVYAQFLAGMAFNNASLGYVHAIAHQLGGFYNLPHGVCNAILLPHVCRFNLTARTERFARIAELLGENVEALSNRDAAEKAIVAIENLSRDLNIPSGFRELGAKDEDIEILAKNAMLDVCAATNPRKATLEEIKQIITNAMGPVAKKEESLVAVALS
notes: as for B1
For B5, the Km turned out to be 233 ± 107 µM and the kcat was determined as 0.0217 ± 0.00167 s⁻¹.

These data come from PMC7867188, “Biosensor-Based Directed Evolution of Methanol Dehydrogenase from Lysinibacillus xylanilyticus” (International Journal of Molecular Sciences, 2021).
